Experimental data from patent US20250339531A1, “DUX4 POLYPEPTIDES AND NUCLEIC ACIDS FOR TREATING INFLAMMATORY AND AUTOIMMUNE CONDITIONS” (Fred Hutchinson Cancer Center, priority 2021, published 2025).

Test system: proteins that co-immunoprecipitated with DUX4-CTD constructs expressed in MB135 myoblasts
Experiment: LC-MS of proteins co-immunoprecipitated with DUX4-CTD (Table 1) and western validation
Assay type: binding, human
Set-up: key to 4. mL1dL2 + Dox + IFNG / 4. + IFNG mix / 4. longCTD + Dox + IFNG / 3. + IFNg + Dox longCTD / 3. + Dox longCTD / 3. + IFNG longCTD: peptide-spectrum matches (PSMs) per protein
Conditions: kind of count not given; for 4. mL1dL2 + Dox + IFNG: LC-MS value per protein co-immunoprecipitated with DUX4-CTD construct mL1dL2 in MB135 myoblasts; for 4. + IFNG mix: LC-MS value per protein co-immunoprecipitated from MB135 myoblasts, + IFNG mix sample (no Dox)
Excerpt: As an unbiased method to identify proteins that interact with the C-terminal region of DUX4, liquid chromatography mass spectroscopy (LC-MS) was used to identify proteins that co-immunoprecipitated with DUX4-CTD constructs expressed in MB135 myoblasts. In the first experiment, MB135iDUX4-CTD cells were used, either untreated, treated with doxycycline alone, or with both doxycycline and IFNG. In the second experiment, MB135iDUX4-CTD and MB135iDUX4mL1dL2 cells were used, both treated with doxycycline and IFNG, compared to these two cell lines untreated and combined as a control. Proteins with a minimum of 2 peptide spectrum matches (PSMs) in at least one sample that were identified in both experiments were assigned to one of ten categories (see Methods) to separate candidate interactors from other categories that might be co-purified because of obligate interactions (e.g., proteasome or ribosome) or might be less likely to be physiologically relevant (e.g., cytoskeletal proteins). Candidate interactors were then ranked based on the total PSMs for that protein across all samples.
Centrifugation at 2500 rcf at 4° C. for 5 min pelleted the nuclei, supernatant was discarded, and nuclei resuspended in 1 mL IP buffer pH 7.4 (25 mM Tris-HCl pH 7.5, 175 mM NaCl, 1 mM EDTA, 0.2% NP-40, 5% glycerol) and incubated for 1 hour at 4° C. with rotation then spun at 21000 rcf for 10 minutes at 4° C. to pellet insoluble debris. Protein concentration was determined using the Pierce BCA Protein Assay Kit (ThermoFisher, 23225). An equivalent amount of protein per sample was pre-cleared with Dynabeads Protein G (Invitrogen) bound to mouse IgG (Abcam #131368) for 1 hour at 4° C. with rotation. FLAG-tagged constructs were then immunoprecipitated with Dynabeads Protein G beads coupled to mouse anti-FLAG M2 mAb (Sigma F3165) for 3 hours at 4° C. with rotation. Beads were washed 3× with 1 mL IP buffer and eluted by adding 2× NuPage LDS Sample Buffer (Thermo Fisher, diluted from 4× with PBS) to the beads and heating for 10 minutes at 70° C.
For LC-MS, anti-FLAG immunoprecipitation was performed with beads cross-linked to the anti-FLAG antibody and the proteins competitively eluted with FLAG peptide. Eluted protein samples were electrophoresed into a NuPage 4-12% Bis-Tris gel, excised, and processed by the Fred Hutchinson Cancer Research Center Proteomics Core. Samples were reduced, alkylated, digested with trypsin, desalted, and run on the Orbitrap Eclipse Tribid Mass Spectrometer (Thermo Fisher). Proteomics data were analyzed using Proteome Discoverer 2.4 against a Uniprot human database that included common contaminants using Sequest HT and Percolator for scoring. […] Proteins that were identified in at least one sample from both independent experiments with at least 2 PSMs in one sample were assigned to one of ten categories: 1, candidates; 2, cytoskeletal associated; 3, cytoskeletal; 4, ribosome/translation associated; 5, proteasome associated; 6, membrane or extracellular; ER, golgi, or vesicle associated; 8, lipid metabolism; 9, chaperones; 10, nuclear import or nuclear membrane associated. The proteins in category 1 were further investigated for interactions with DUX4.

B1: USP11 (protein)
chain: MAVAPRLFGGLCFRFRDQNPEVAVEGRLPISHSCVGCRRERTAMATVAANPAAAAAAVAAAAAVTEDREPQHEELPGLDSQWRQIENGESGRERPLRAGESWFLVEKHWYKQWEAYVQGGDQDSSTFPGCINNATLFQDEINWRLKEGLVEGEDYVLLPAAAWHYLVSWYGLEHGQPPIERKVIELPNIQKVEVYPVELLLVRHNDLGKSHTVQFSHTDSIGLVLRTARERFLVEPQEDTRLWAKNSEGSLDRLYDTHITVLDAALETGQLIIMETRKKDGTWPSAQLHVMNNNMSEEDEDFKGQPGICGLTNLGNTCFMNSALQCLSNVPQLTEYFLNNCYLEELNFRNPLGMKGEIAEAYADLVKQAWSGHHRSIVPHVFKNKVGHFASQFLGYQQHDSQELLSFLLDGLHEDLNRVKKKEYVELCDAAGRPDQEVAQEAWQNHKRRNDSVIVDTFHGLFKSTLVCPDCGNVSVTFDPFCYLSVPLPISHKRVLEVFFIPMDPRRKPEQHRLVVPKKGKISDLCVALSKHTGISPERMMVADVFSHRFYKLYQLEEPLSSILDRDDIFVYEVSGRIEAIEGSREDIVVPVYLRERTPARDYNNSYYGLMLFGHPLLVSVPRDRFTWEGLYNVLMYRLSRYVTKPNSDDEDDGDEKEDDEEDKDDVPGPSTGGSLRDPEPEQAGPSSGVTNRCPFLLDNCLGTSQWPPRRRRKQLFTLQTVNSNGTSDRTTSPEEVHAQPYIAIDWEPEMKKRYYDEVEAEGYVKHDCVGYVMKKAPVRLQECIELFTTVETLEKENPWYCPSCKQHQLATKKLDLWMLPEILIIHLKRFSYTKFSREKLDTLVEFPIRDLDFSEFVIQPQNESNPELYKYDLIAVSNHYGGMRDGHYTTFACNKDSGQWHYFDDNSVSPVNENQIESKAAYVLFYQRQDVARRLLSPAGSSGAPASPACSSPPSSEFMDVN
4. mL1dL2 + Dox + IFNG: 1

B2: CKAP4 (protein)
chain: MPSAKQRGSKGGHGAASPSEKGAHPSGGADDVAKKPPPAPQQPPPPPAPHPQQHPQQHPQNQAHGKGGHRGGGGGGGKSSSSSSASAAAAAAAASSSASCSRRLGRALNFLFYLALVAAAAFSGWCVHHVLEEVQQVRRSHQDFSRQREELGQGLQGVEQKVQSLQATFGTFESILRSSQHKQDLTEKAVKQGESEVSRISEVLQKLQNEILKDLSDGIHVVKDARERDFTSLENTVEERLTELTKSINDNIAIFTEVQKRSQKEINDMKAKVASLEESEGNKQDLKALKEAVKEIQTSAKSREWDMEALRSTLQTMESDIYTEVRELVSLKQEQQAFKEAADTERLALQALTEKLLRSEESVSRLPEEIRRLEEELRQLKSDSHGPKEDGGFRHSEAFEALQQKSQGLDSRLQHVEDGVLSMQVASARQTESLESLLSKSQEHEQRLAALQGRLEGLGSSEADQDGLASTVRSLGETQLVLYGDVEELKRSVGELPSTVESLQKVQEQVHTLLSQDQAQAARLPPQDFLDRLSSLDNLKASVSQVEADLKMLRTAVDSLVAYSVKIETNENNLESAKGLLDDLRNDLDRLFVKVEKIHEKV
4. + IFNG mix: 24 | 4. mL1dL2 + Dox + IFNG: 19

B3: SERPINB3 (protein)
chain: MNSLSEANTKFMFDLFQQFRKSKENNIFYSPISITSALGMVLLGAKDNTAQQIKKVLHFDQVTENTTGKAATYHVDRSGNVHHQFQKLLTEFNKSTDAYELKIANKLFGEKTYLFLQEYLDAIKKFYQTSVESVDFANAPEESRKKINSWVESQTNEKIKNLIPEGNIGSNTTLVLVNAIYFKGQWEKKFNKEDTKEEKFWPNKNTYKSIQMMRQYTSFHFASLEDVQAKVLEIPYKGKDLSMIVLLPNEIDGLQKLEEKLTAEKLMEWTSLQNMRETRVDLHLPRFKVEESYDLKDTLRTMGMVDIFNGDADLSGMTGSRGLVLSGVLHKAFVEVTEEGAEAAAATAVVGFGSSPTSTNEEFHCNHPFLFFIRQNKTNSILFYGRFSSP
4. + IFNG mix: 2

B4: IGF2BP2 (protein)
chain: MMNKLYIGNLSPAVTADDLRQLFGDRKLPLAGQVLLKSGYAFVDYPDQNWAIRAIETLSGKVELHGKIMEVDYSVSKKLRSRKIQIRNIPPHLQWEVLDGLLAQYGTVENVEQVFAFSLVNTDTETAVVNVTYATREEAKIAMEKLSGHQFENYSFKISYIPDEEVSSPSPPQRAQRGDHSSREQGHAPGGTSQARQIDFPLRILVPTQFVGAIIGKEGLTIKNITKQTQSRVDIHRKENSGAAEKPVTIHATPEGTSEACRMILEIMQKEADETKLAEEIPLKILAHNGLVGRLIGKEGRNLKKIEHETGTKITISSLQDLSIYNPERTITVKGTVEACASAEIEIMKKLREAFENDMLAVNQQANLIPGLNLSALGIFSTGLSVLSPPAGPRGAPPAAPYHPFTTHSGYFSSLYPHHQFGPFPHHHSYPEQEIVNLFIPTQAVGAIIGKKGAHIKQLARFAGASIKIAPAEGPDVSERMVIITGPPEAQFKAQGRIFGKLKEENFFNPKEEVKLEAHIRVPSSTAGRVIGKGGKTVNELQNLTSAEVIVPRDQTPDENEEVIVRIIGHFFASQTAQRKIREIVQQVKQQEQKYPQGVASQRSK
4. mL1dL2 + Dox + IFNG: 1

B5: ENDOD1 (protein)
chain: RLVGEEEAGFGECDKFFYAGTPPAGLAADSHVKICQRAEGAERFATLYSTRDRIPVYSAFRAPRPAPGGAEQRWLVEPQIDDPNSNLEEAINEAEAITSVNSLGSKQALNTDYLDSDYQRGQLYPFSLSSDVQVATFTLTNSAPMTQSFQERWYVNLHSLMDRALTPQCGSGEDLYILTGTVPSDYRVKDKVAVPEFVWLAACCAVPGGGWAMGFVKHTRDSDIIEDVMVKDLQKLLPFNPQLFQNNCGETEQDTEKMKKILEVVNQIQDEERMVQSQKSSSPLSSTRSKRSTLLPPEASEGSSSFLGKLMGFIATPFIKLFQLIYYLVVAILKNIVYFLWCVTKQVINGIESCLYRLGSATISYFMAIGEELVSIPWKVLKVVAKVIRALLRILCCLLKAICRVLSIPVRVLVDVATFPVYTMGAIPIVCKDIALGLGGTVSLLFDTAFGTLGGLFQVVFSVCKRIGYKVTFDNSGEL
4. + IFNG mix: 1 | 4. mL1dL2 + Dox + IFNG: 1

B6: STAT1 (protein)
chain: SQWYELQQLDSKFLEQVHQLYDDSFPMEIRQYLAQWLEKQDWEHAANDVSFATIRFHDLLSQLDDQYSRFSLENNFLLQHNIRKSKRNLQDNFQEDPIQMSMIIYSCLKEERKILENAQRFNQAQSGNIQSTVMLDKQKELDSKVRNVKDKVMCIEHEIKSLEDLQDEYDFKCKTLQNREHETNGVAKSDQKQEQLLLKKMYLMLDNKRKEVVHKIIELLNVTELTQNALINDELVEWKRRQQSACIGGPPNACLDQLQNWFTIVAESLQQVRQQLKKLEELEQKYTYEHDPITKNKQVLWDRTFSLFQQLIQSSFVVERQPCMPTHPQRPLVLKTGVQFTVKLRLLVKLQELNYNLKVKVLFDKDVNERNTVKGFRKFNILGTHTKVMNMEESTNGSLAAEFRHLQLKEQKNAGTRTNEGPLIVTEELHSLSFETQLCQPGLVIDLETTSLPVVVISNVSQLPSGWASILWYNMLVAEPRNLSFFLTPPCARWAQLSEVLSWQFSSVTKRGLNVDQLNMLGEKLLGPNASPDGLIPWTRFCKENINDKNFPFWLWIESILELIKKHLLPLWNDGCIMGFISKERERALLKDQQPGTFLLRFSESSREGAITFTWVERSQNGGEPDFHAVEPYTKKELSAVTFPDIIRNYKVMAAENIPENPLKYLYPNIDKDHAFGKYYSRPKEAPEPMELDGPKGTGYIKTELISVSEVHPSRLQTTDNLLPMSPEEFDEVSRIVGSVEFDSMMNTV
4. + IFNG mix: 3 | 4. mL1dL2 + Dox + IFNG: 18
